How the values were obtained:
[1] = target: T1, recombinant 6×Histidine tagged human SORT1 (Homo sapiens, UniProt Q99523); test: Surface plasmone resonance binding of Naglu-SPP to SORT1
T1 sequence (Q99523 78-831): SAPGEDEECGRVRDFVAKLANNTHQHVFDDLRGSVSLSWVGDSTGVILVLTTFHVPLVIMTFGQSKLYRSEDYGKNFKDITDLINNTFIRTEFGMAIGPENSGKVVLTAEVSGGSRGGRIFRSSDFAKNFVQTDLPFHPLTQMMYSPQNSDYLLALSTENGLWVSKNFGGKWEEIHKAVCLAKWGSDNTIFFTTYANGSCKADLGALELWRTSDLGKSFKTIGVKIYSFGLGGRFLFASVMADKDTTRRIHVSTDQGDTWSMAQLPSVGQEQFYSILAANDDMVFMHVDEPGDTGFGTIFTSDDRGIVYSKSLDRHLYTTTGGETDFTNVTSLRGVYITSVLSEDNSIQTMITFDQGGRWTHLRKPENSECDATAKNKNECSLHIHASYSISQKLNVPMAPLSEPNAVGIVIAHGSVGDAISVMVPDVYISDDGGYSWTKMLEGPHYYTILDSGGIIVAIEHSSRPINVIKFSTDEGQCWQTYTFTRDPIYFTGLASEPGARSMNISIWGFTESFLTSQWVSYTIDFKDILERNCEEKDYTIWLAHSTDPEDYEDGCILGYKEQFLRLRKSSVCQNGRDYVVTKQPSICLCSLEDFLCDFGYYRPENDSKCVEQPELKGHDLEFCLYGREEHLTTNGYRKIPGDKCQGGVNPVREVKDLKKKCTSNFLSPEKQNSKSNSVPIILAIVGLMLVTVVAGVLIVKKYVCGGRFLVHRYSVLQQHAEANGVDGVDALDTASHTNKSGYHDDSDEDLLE
Method: Studies were also carried out to determine the binding properties of Naglu-SPP and evaluate its specificity for SORT1 by surface plasmone resonance (SPR), a commonly used standard technique. Briefly, anti-His mAb (capturing molecule) was diluted in immobilization buffer and bound on the dextran surface of a SPR sensor chip housed in a microfluidic system. Next, a solution containing recombinant 6×Histidine tagged human SORT1 (ligand) was injected into the microflow system and run over the surface-bound anti-His mAbs to form a “capture complex.” A solution containing purified Naglu-SPP protein (analyte) was then injected into the device. As the solution moved over the SPR sensor chip, the analyte bound to the capture complex and an increase in SPR signal (expressed in response units, RU) was observed. Finally, a solution without analyte was injected into the microfluidic device to detach bound […] from the capture complex, resulting in a decrease in SPR signal. The detailed experimental conditions are described in Table 6 below.

Naglu KO mice [2] = test: Heparan sulfate in brain by LC/MS; type: in vivo; details: intrathecal, 520 mg/kg brain, 2× weekly and 3× weekly
Method: (§1) To evaluate the in vivo activity of Naglu-SPP and its efficacy as a therapeutic for the treatment of lysosomal storage diseases, particularly San B, Naglu-SPP was administered to Naglu KO mice via intrathecal injection. Intrathecal administration of Naglu-IGFII served as a positive control. The experimental conditions used for this assay are described in Tables 10 and 11 below.
In a second assay, we evaluation the total amount of heparan sulfate in the brain of treated KO mice. […] To measure heparan sulfate in mouse brain tissue, a highly sensitive LC/MS method was applied (Lawrence et al, 2012, Nat Chem Biol. 2012 Jan. 8; 8(2):197-204). Briefly, total GAG from brain tissue was extracted by a DEAE column and a desalting column, and then dried and weighted. The extracted GAG was treated with heparin lyases that specifically release unique mono, di and tri saccharides of heparan sulfate, and the sample was then analyzed by LC/MS. The released saccharides were identified and quantified using commercially available saccharide standards of heparan sulfate degradation.

wild-type rats = test: Naglu enzyme activity in liver and brain after intrathecal administration (biodistribution); type: in vivo; details: 385 ug/animal
Method: To evaluate biodistribution of the SORT1-binding Naglu fusion proteins, an in vivo study was conducted using wild-type rats subjected to intrathecal administration of vehicle control (PBS), rhNaglu, Naglu-IGFII, Naglu-SPP, Naglu-SapDC or Naglu-tPRGN. Details of the experimental design are provide in Table 9 below. Previous experiments had shown that Naglu-IGFII but not rhNaglu penetrates into brain tissue and is targeted to lysosomes after intrathecal injection. Accordingly, rhNaglu and Naglu-IGFII were utilized in this study as negative and positive controls, respectively.
Rats were sacrificed either 4 or 24 hours post intrathecal administration of the respective fusion protein and total Naglu enzyme activity in the animals' liver and brain tissue was determined using a well-established enzyme activity assay (FIGS. 7A and B). Briefly, brain and liver tissue homogenates were prepared and incubated in the presence of a Naglu specific substrate, i.e., methylumbelliferyl-N-acetyl-α-D-glucosainide; accumulation of cleavage product was then measured by examining fluorescence intensity at 360/460 nm (excitation/emission) using a fluorescent plate reader.

Naglu KO mice [3] = test: Naglu enzyme activity in tissues of Naglu KO mice after intrathecal administration; type: in vivo; details: 520 mg/kg brain, 24 hrs post final dose
Method: as §1
24 hours after intrathecal administration of each respective fusion protein, Naglu KO mice were sacrificed and Naglu enzyme activity in various tissues was assayed. Total Naglu activity was evaluated using a well-established enzyme activity assay. Briefly, tissue homogenate was incubated in the presence of the Naglu specific substrate methylumbelliferyl-N-acetyl-α-D-glucosainide, and accumulation of cleavage product was measured by examining fluorescence intensity at 360/460 nm (excitation/emission) using a fluorescent plate reader. […] This increase in enzyme activity was observed over the duration of the 3 week treatment period.

Naglu KO mice [4] = test: Total glycosaminoglycan (GAG) in liver and brain, dimethylmethylene blue; type: in vivo; details: intrathecal, 520 mg/kg brain; brain significant in 2× and 3× weekly groups
Method: as §1
The activity of Naglu-SPP and Naglu-IGFII in vivo was also evaluated by examining the intracellular accumulation of natural substrates of Naglu in treated mice. One such assay was designed to evaluate the total concentration of glycosaminoglycan (GAG) in liver (FIG. 11A) and brain (FIG. 11B) tissue of treated mice in accordance with de Jong et al. (Clin Chem 38(6):803-807, 1992). Briefly, liver tissue was homogenized and total GAG quantified using dimethylmethylene blue. Brain tissue was homogenized and then incubated with pronase and benzonase to break down protein and nucleic acid. Total GAG was then extracted by passing the brain homogenate through a DEAE column. The eluate was further buffer exchanged through a desalting column, and the total GAG content was quantified using dimethylmethylene blue. […] The reduction of total GAG amount in brain tissue was significant in the 2× weekly as well as the 3× weekly treatment groups.

B1: Naglu-SPP: Fusion protein of human Naglu and SORT1 propeptide (SPP) via GAG3 linker; SEQ ID NO:17 (full-length), SEQ ID NO:22 (protein)
chain: MEAVAVAAAVGVLLLAGAGGAAGDEAREAAAVRALVARLLGPGPAADFSVSVERALAAKPGLDTYSLGGGGAARVRVRGSTGVAAAAGLHRYLRDFCGCHVAWSGSQLRLPRPLPAVPGELTEATPNRYRYYQNVCTQSYSFVWWDWARWEREIDWMALNGINLALAWSGQEAIWQRVYLALGLTQAEINEFFTGPAFLAWGRMGNLHTWDGPLPPSWHIKQLYLQHRVLDQMRSFGMTPVLPAFAGHVPEAVTRVFPQVNVTKMGSWGHFNCSYSCSFLLAPEDPIFPIIGSLFLRELIKEFGTDHIYGADTFNEMQPPSSEPSYLAAATTAVYEAMTAVDTEAVWLLQGWLFQHQPQFWGPAQIRAVLGAVPRGRLLVLDLFAESQPVYTRTASFQGQPFIWCMLHNFGGNHGLFGALEAVNGGPEAARLFPNSTMVGTGMAPEGISQNEVVYSLMAELGWRKDPVPDLAAWVTSFAARRYGVSHPDAGAAWRLLLRSVYNCSGEACRGHNRSPLVRRPSLQMNTSIWYNRSDVFEAWRLLLTSAPSLATSPAFRYDLLDLTRQAVQELVSLYYEEARSAYLSKELASLLRAGGVLAYELLPALDEVLASDSRFLLGSWLEQARAAAVSEAEADFYEQNSRYQLTLWGPEGNILDYANKQLAGLVANYYTPRWRLFLEALVDSVAQGIPFQQHQFDKNVFQLEQAFVLSKQRYPSQPRGDTVDLAKKIFLKYYPRWVAGSWGAPGGGGGAAAAAGGGGGGAPGGGGGAAAAAGGGGGGAPGGGGGAAAAAGGGGGGAPQDRLDAPPPPAAPLPRWSGPIGVSWGLRAAAAGGAFPRGGRWRR
[1]; SPR, Naglu-SPP 0 to 20 nM
  average association constant (Ka): approximately 1.1×10^6 1/Ms
  dissociation constant (Kd): approximately 7.1×10^−4 1/s
[1]; all concentrations tested (0 to 20 nM)
  binding to SORT1: strong binding
Naglu KO mice [2]
  total amount of heparan sulfate accumulation in brain tissue: strong reduction
wild-type rats
  rank of Naglu enzyme activity in brain among treatments: highest activity
wild-type rats; 4 or 24 hours post dose
  Naglu enzyme activity in brain: markedly elevated levels
Naglu KO mice [3]
  Naglu activity in liver and brain tissue vs vehicle control: dramatic increase
Naglu KO mice [4]
  total GAG concentration in liver and brain tissue vs vehicle control: significant reduction

— patent US10603364B2, “Lysosomal targeting and uses thereof” (Shire Human Genetic Therapies, Inc., priority 2014, dated 2020)
